Data as given in patent publication US20250186580A1 (TRIDEM BIOSCIENCE, published 2025).

Target: Menveo, Neisseria meningitidis oligosaccharide (A, C, W135, Y) CRM197 conjugate vaccine, without β-glucan … (UniProt P00588 33-567)
Assay: competitive ELISA, soluble murine Fc-dectin-1a on coated glucan

B1: soluble murine Fc-dectin-1a receptor (InvivoGen) (Fc fusion)
chain: EYGHNSGRNPEEKDNFLSRNKENHKPTESSLDEKVAPSKASQTTGGFSQPCLPNWIMHGKSCYLFSFSGNSWYGSKRHCSQLGAHLLKIDNSKEFEFIESQTSSHRINAFWIGLSRNQSEGPWFWEDGSAFFPNSFQVRNTAPQESLLHNCVWIHGSEVYNQICNTSSYSICEKEL
Question: Does B1 bind?
Answer: no binding
